{"source": "paper PMC9889962", "about": "(Antibody Therapeutics, 2023)", "binders": {"B1": {"name": "LiVE-Longer YTE chimera (ACE-2 LVE/STR-YTE fusion protein) (Fc fusion)", "chain": "QSTIEEQAKLFLDKFNVEAEDLFYQSSLASWNYNTNITEENVQNMNNAGDKWSAFLKEQSTLAQMYPLQEIQELTVKLQLQALQQNGSSVLSEDKSKRLNTILNTMSTIYSTGKVCNPDNPQECLLLEPGLNEIMANSLDYNERLWAWESWRSEVGKQLRPLYEEYVVLKNEMARANHYEDYGDYWRGDYEVNGVDGYDYSRGQLIEDVEHTFEEIKPLYEHLHAYVRAKLMNAYPSYISPIGCLPAHLLGDMWGRFWTNLYSLTVPFGQKPNIDVTDAMVDQAWDAQRIFKEAEKFFVSVGLPNMTQGFWENSMLTDPGNVQKAVCHPTAWDLGKGDFRILMCTKVTMDDFLTAHHEMGHIQYDMAYAAQPFLLRNGANEGFHEAVGEIMSLSAATPKHLKSIGLLSPDFQEDNETEINFLLKQALTIVGTLPFTYMLEKWRWMVFKGEIPKDQWMKKWWEMKREIVGVVEPVPHDETYCDPASLFHVSNDYSFIRYYTRTLYQFQFQEALCQAAKHEGPLHKCDISNSTEAGQKLFNMLRLGKSEPWTLALENVVGAKNMNVRPLLNYFEPLFTWLKDQNKNSFVGWSTDWSPYADQSIKVRISLKSALGDKAYEWNDNEMYLFRSSVAYAMRQYFLKVKNQMILFGEEDVRVANLKPRISFNFFVTAPKNVSDIIPRTEVEKAIRMSRSRINDAFRLNDNSLEFLGIQPTLGPPNQPPVS"}}, "key": {"[1]": {"target": "SARS-CoV-2 Omicron B.1.1.529 RBD only (SARS-CoV-2, UniProt P0DTC2)", "assay": "SPR", "conditions": "both partners purified"}, "[2]": {"target": "SARS-CoV-2 Alpha variant B.1.1.7, S1 subunit (SARS-CoV-2)", "assay": "SPR", "conditions": "both partners purified"}}}
{"binder": "B1", "values": [{"measurement": "Kd", "setting": "[1]", "value": 0.402, "unit": "nM"}, {"measurement": "Kd", "setting": "[2]", "value": 0.093, "unit": "nM"}]}
